Values joined by “and” are separate entries in the source; they are usually repeats but may differ in a detail not shown here. Equal entries are not always repeated.
Columns and labels:
[1] = Serum anti-therapeutic antibody (ATA) bridging antibody ELISA; type: in vivo, human; conditions: patients; minimal impact on the exposure
Protocol: Serum anti-therapeutic antibody (ATA) samples were collected from all treated patients and were analyzed using a validated bridging antibody ELISA. Positive antibody responses were further characterized by competitive binding to determine if the response was primarily directed against the antibody or the linker-drug portion of the ADC.

[2] = DMUC5754A pharmacokinetics in patients (total antibody ELISA; acMMAE and unconjugated MMAE LC/MS/MS); type: in vivo, human
From the text: Pharmacokinetics (PK) of DMUC5754A was characterized following q3w or qlw dosing schedules in both OC and PC patients. Serum or plasma samples at multiple pre-specified time points were quantified for three analytes (unconjugated MMAE, DMUC5754A total antibody, and DMUC5754A conjugate (measured as antibody-conjugated MMAE, acMMAE)). Total antibody (antibody with MMAE-to-antibody ratio equal or greater than zero, including conjugated, partially deconjugated and fully deconjugated antibody) were analyzed using validated enzyme-linked immunosorbent assay methods with the minimum quantifiable concentration of 60 ng/mL. Plasma acMMAE and unconjugated MMAE were determined by using validated LC/MS/MS assays. The lower limit of quantitation (LLOQ) for the acMMAE assay and unconjugated MMAE were 0.359 ng/mL and 0.0359 ng/mL in human plasma, respectively. PK data after Cycle 1, Day 1 dose of DMUC5754A were analyzed with non-compartmental analysis using Phoenix WinNonlin 6.2 (Certara, L. P.), and further evaluated based on dose regimen and cancer type.

[3] = Cycle 1, 2.4 mg/kg q3w, OC (n = 29), Mean [SD]
[4] = Cycle 1, 2.4 mg/kg q3w, PC (n = 10), Mean [SD]
[5] = q1w 1st dose, 0.8 mg/kg, OC, N 3
[6] = q1w 1st dose, 1.1 mg/kg, OC, N 7
[7] = q1w 1st dose, 1.4 mg/kg, OC, N 6
[8] = q1w 1st dose, 1.4 mg/kg, PC, N 1
[9] = q1w 1st dose, 1.6 mg/kg, OC, N 4
[10] = q3w 1st cycle, 0.3 mg/kg, OC, N 3
[11] = q3w 1st cycle, 0.6 mg/kg, OC, N 3
[12] = q3w 1st cycle, 1.2 mg/kg, OC, N 3
[13] = q3w 1st cycle, 1.8 mg/kg, OC, N 3
[14] = q3w 1st cycle, 2.4 mg/kg, OC, N 29
[15] = q3w 1st cycle, 2.4 mg/kg, PC, N 10
[16] = q3w 1st cycle, 3.2 mg/kg, OC, N 3

B1: DMUC5754A: antibody-drug conjugate: humanized IgG1 anti-MUC16 monoclonal antibody and MMAE, linked through protease labile linker maleimidocaproyl-valine-citrulline-p-aminobenzyloxycarbonyl (conjugate, chains of the INN, looked up)
VH: EVQLVESGGGLVQPGGSLRLSCAASGYSITNDYAWNWVRQAPGKGLEWVGYISYSGYTTYNPSLKSRFTISRDTSKNTLYLQMNSLRAEDTAVYYCARWTSGLDYWGQGTLVTVSS
VL: DIQMTQSPSSLSASVGDRVTITCKASDLIHNWLAWYQQKPGKAPKLLIYGATSLETGVPSRFSGSGSGTDFTLTISSLQPEDFATYYCQQYWTTPFTFGQGTKVEIK
modifications: MMAE via mc-vc-PABC linker
[1]
  immunogenicity rate: 14.1%
[2]; [3]
  acMMAE CL: 1.06 ± 0.35 mL/h/kg
  acMMAE Vss: 82.1 ± 21.1 mL/kg
  acMMAE t1/2: 5.01 ± 1.45 days
[2]; [4]
  acMMAE Vss: 94.6 [32.4] mL/kg
  acMMAE t1/2: 5.42 [1.91] day
[2]; human, in vivo
  systemic unconjugated MMAE exposure, fold less than acMMAE exposure: approximately 100 fold
[2]; [5]
  Total Antibody AUCinf: 33.2 µg·days/mL
  Total Antibody Cmax: 13000 ng/mL
  acMMAE AUCinf: 386 ng·days/mL
  acMMAE Cmax: 227 ng/mL
[2]; q1w 1st dose, 0.8 mg/kg, OC, n = 2
  Unconjugated MMAE Cmax: 1.24 ng/mL
[2]; [6]
  Total Antibody AUCinf: 56.1 µg·days/mL
  Total Antibody Cmax: 17700 ng/mL
  Unconjugated MMAE Cmax: 3.23 ng/mL
  acMMAE Cmax: 301 ng/mL
[2]; q1w 1st dose, 1.1 mg/kg, OC, n = 6
  acMMAE AUCinf: 612 ng·days/mL
[2]; [7]
  Total Antibody AUCinf: 73.0 µg·days/mL
  Total Antibody Cmax: 23900 ng/mL
  Unconjugated MMAE Cmax: 3.73 ng/mL
  acMMAE Cmax: 449 ng/mL
[2]; q1w 1st dose, 1.4 mg/kg, OC, n = 5
  acMMAE AUCinf: 813 ng·days/mL
[2]; [8]
  Total Antibody AUCinf: 55.7 µg·days/mL
  Total Antibody Cmax: 17300 ng/mL
  Unconjugated MMAE Cmax: 7.59 ng/mL
  acMMAE AUCinf: 542 ng·days/mL
  acMMAE Cmax: 204 ng/mL
[2]; [9]
  Total Antibody AUCinf: 82.3 µg·days/mL
  Total Antibody Cmax: 29700 ng/mL
  Unconjugated MMAE Cmax: 5.75 ng/mL
  acMMAE AUCinf: 957 ng·days/mL
  acMMAE Cmax: 539 ng/mL
[2]; [10]
  Total Antibody Cmax: 6650 ng/mL
  Unconjugated MMAE AUCinf: 4.33 ng·days/mL
  Unconjugated MMAE Cmax: 0.675 ng/mL
  acMMAE AUCinf: 135 ng·days/mL
  acMMAE Cmax: 93.3 ng/mL
[2]; q3w 1st cycle, 0.3 mg/kg, OC, n = 2
  Total Antibody AUCinf: 13.1 µg·days/mL
[2]; [11]
  Total Antibody AUCinf: 29.5 µg·days/mL
  Total Antibody Cmax: 16600 ng/mL
  Unconjugated MMAE AUCinf: 10.3 ng·days/mL
  Unconjugated MMAE Cmax: 2.03 ng/mL
  acMMAE AUCinf: 310 ng·days/mL
  acMMAE Cmax: 226 ng/mL
[2]; [12]
  Total Antibody AUCinf: 81.8 µg·days/mL
  Total Antibody Cmax: 22500 ng/mL
  Unconjugated MMAE AUCinf: 19.2 ng·days/mL
  Unconjugated MMAE Cmax: 2.84 ng/mL
  acMMAE AUCinf: 715 ng·days/mL
  acMMAE Cmax: 337 ng/mL
[2]; [13]
  Total Antibody AUCinf: 106.0 µg·days/mL
  Total Antibody Cmax: 35500 ng/mL
  Unconjugated MMAE AUCinf: 33.1 ng·days/mL
  Unconjugated MMAE Cmax: 4.7 ng/mL
  acMMAE AUCinf: 1050 ng·days/mL
  acMMAE Cmax: 618 ng/mL
[2]; [14]
  Total Antibody AUCinf: 178.0 µg·days/mL
  Total Antibody Cmax: 42200 ng/mL
  Unconjugated MMAE Cmax: 6.77 ng/mL
  acMMAE AUCinf: 1850 ng·days/mL
  acMMAE Cmax: 860 ng/mL and 860 [216] ng/mL
[2]; q3w 1st cycle, 2.4 mg/kg, OC, n = 28
  Unconjugated MMAE AUCinf: 55.5 ng·days/mL
[2]; [15]
  Total Antibody AUCinf: 167.0 µg·days/mL
  Total Antibody Cmax: 38900 ng/mL
  Unconjugated MMAE AUCinf: 63.6 ng·days/mL
  Unconjugated MMAE Cmax: 7.7 ng/mL
  acMMAE AUCinf: 1680 ng·days/mL
  acMMAE Cmax: 737 ng/mL and 737 [115] ng/mL
[2]; [16]
  Total Antibody AUCinf: 324.0 µg·days/mL
  Total Antibody Cmax: 71400 ng/mL
  Unconjugated MMAE Cmax: 20 ng/mL
  acMMAE AUCinf: 3380 ng·days/mL
  acMMAE Cmax: 1220 ng/mL
[2]; q3w 1st cycle, 3.2 mg/kg, OC, n = 1
  Unconjugated MMAE AUCinf: 111 ng·days/mL
[2]; q3w and q1w cohorts, 0.3-3.2 mg/kg, nonlinear PK
  increase of exposure of acMMAE or total antibody (Cmax or AUCinf, Cycle 1) with dose: not dose proportional
